# Test results: patent publication US20240369578A1 (NEURO BIO, published 2024)
# Biological target: T1, alpha-7 nicotinic receptor (human, UniProt P36544 23-502)
# T1 construct: Endogenous receptor in human brain homogenate, captured by biotinylated BTX on SA-donor beads in the AlphaLISA; also called alpha-7 receptor
# Assay: AlphaLISA of T14-alpha-7 complex in human hippocampal tissue lysate (biotinylated BTX on SA-donor beads, anti-T14 on acceptor beads)
# Description: Samples were extracted from homogenized human brain tissue using PerkinElmer lysis buffer and the protein concentration determined using the BCA method. For 100 mg tissue homogenization, 1 mL of lysis buffer was used. Five cycles of 40 second pulse, and 10 second breaks, on a shielded homogenizer were used for each sample. Samples were centrifuged at […], 15000 rpm (15 minutes) for supernatants; these were diluted in PerkinElmer Assay buffer and used to measure T14-alpha-7 nicotinic receptor complexes in the presence of NBP14 (concentrations 0.065 μM-900 μM) with AlphaLISA following the manufacturer's protocol. The antibodies were biotinylated BTX on SA-donor beads and anti-rabbit T14 on acceptor beads; results read in an AlphaLISA Reader.
# T1 sequence (P36544 23-502 limits assumed): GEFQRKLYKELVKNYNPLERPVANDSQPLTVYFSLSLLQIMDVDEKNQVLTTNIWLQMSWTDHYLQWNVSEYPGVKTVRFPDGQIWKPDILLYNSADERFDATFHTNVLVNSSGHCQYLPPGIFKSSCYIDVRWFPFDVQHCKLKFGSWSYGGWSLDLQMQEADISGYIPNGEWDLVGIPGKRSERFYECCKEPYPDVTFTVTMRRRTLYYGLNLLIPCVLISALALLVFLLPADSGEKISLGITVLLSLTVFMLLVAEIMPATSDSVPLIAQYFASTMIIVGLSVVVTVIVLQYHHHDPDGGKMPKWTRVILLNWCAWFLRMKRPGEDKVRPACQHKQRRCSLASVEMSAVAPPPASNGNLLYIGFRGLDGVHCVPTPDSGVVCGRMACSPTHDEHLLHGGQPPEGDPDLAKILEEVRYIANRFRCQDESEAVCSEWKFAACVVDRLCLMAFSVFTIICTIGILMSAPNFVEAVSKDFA
binder,measurement,value
"AEFHRWSSYMVHWK (In the assays this was endogenous T14 in human brain tissue, CSF or plasma; Synthetic T14 served as the positive control and standard) [T14 peptide (AChE-derived peptide, SEQ ID No:3)]",binding result,binds
